According to the DeepSol protein solubility set:

Assay: soluble on expression in E. coli; label from the status in PepcDB or PDB records

Soluble on expression in E. coli, not soluble:
MGSDKIHHHHHHMSTSPLYYAKKTQELCALSDVYITLNRMLSSDGCSLEQLADAIAYEPAIAASILKIANSAMFSMPRKIDSLSKALTILGIKEVKKLVNAYGITAAFSNLDPNVVDMDKFWEISVDCALICQYFAKNKQIPNTDNIFLSGLFHNLGMLAMISSEPAKVRYCEGYDRDETPWFRQNQVFGFTFADCTTELLKLWDLPDSIIQPIAEFNGAEHEPLPDNSKLLYMASRLAVINADPGLYAKEALIDKAILDDLGIESSDMSQSLEYCNEQAMELLATFPIQGRKSSE
MGSDKIHHHHHHMSVLIECRDLSHSYGEKTVLHDLSFTVRQGGVFGLLGKNGAGKSTTINILMGFLRPGSGSCRVLGEPSHALSPHARRRIGLLHEGFIQYDFMTIAELERYYAAFYPLWDRSVFFDLTDRLQVPYSRRISCLSCGQRSQVVLGLIMAQQPQLMILDDYSMGLDVGYRRLFIDFLREYVAKRGTTVLLTSHVVQELDKIVDNMIVLREGRVAVSGSKKEFMDSFRCYSFARSPASDALHADTVLENVEHMGSVTTVYAFADGEPVARHLRDRGVDPQNMTPVPMDFEDAFVGLTGKY
MGSDKIHHHHHHMSYKVINVITAIDYIEEHLSEKLDLDIVANAVHYSKYHLHRTFTTSVGLTMHDYIKRRKLTEAAKLLVFSKKPIIEIALIAGYESQQAFTSIFKAMYKKSPNKYRKEQEFYPLQLRFVLKKDNLFLKNVLELEKEIKLASMSDIPLWMNLVRLVIDGFPNLQEEEYIYQLEQYILEERALILKLNNVAIANMVFNRETRSIDFFGIHPQYRNSDIAQVFLKKVIEDFLIDTDISITTFREGDKADTGHRDMIKKLGFAEAELLVEFGYPTQKFILPLS
MGSDKIHHHHHHMTAEVAIINRSGIALAADSAVTIGRDRVWKNSNKLFHLAPSNDVAVMVFGSGDYCGLPWEVVIKEFRKSLGKTTYSRVEEYVGRFLGFLDDLVVPPTPLADLTGWYIILNAISQTQKAMTASGSLKRRQQLIAAISEKIEEADHYPLLFDGYSRDQYRKKHSQKIKEFMAEELGMHVTQTMHSKMITLCYERSRRAFETKFETGVVFAGYGDSELLPVVIEMCVDGELEGKVRAWQVRENNMNEGGTSGAILPFAQADVANLFVEGTLPQYLSYTRQTLLQTLDLKTAELVKDYVPEPDRVVEMERQKKANRAMVKQFSTDFKQYRHDESVANLLKVVNSLPKEEMAAMAEALVEITSLRRKMDSSLETVGGPVDVAIISKSDGFVWTKRKHYFDVEFNRDFMERRNQRYQGNQDA
MGSDKIHHHHHHMTAYNNNAIYFKNIASGSKGNSTFIWDAHDLIVIDFGITMKKFKEAISELTLGGLNKSIFISHEHADHVSGIRSVKKVDGADVYTRPATAEAANIKAYEIDNEVVIGNFEILAFDVPHDAADPVAFTVKWKDLKISVVSDLGTVTENVISNIRDSDILAFESNHDVSMLKTGRYPASLKRRILSQHGHLSNEQSAEAISKAINESTEIVLTHLSQENNKPEIALNEVKSYLKNRDIKYKDVECADQYVGSSLKSLKT
MGSDKIHHHHHHMTDEHSVFEYKIGLLAPSRVGKSTLIAGLLTEGQQQLAQDSSVHLLTADRPTKNRLAATYNLVSGALKARMFEPGLVPSTSDPSWFRLLLEARGQDLQIRFDILDYPGAWLEGAGEGTEDEQKWNECEAFLADSSVLILPIDSVLLMDSGDDHAHLLASHLSVFQINQAVLRWAKNRRELSGEPAMIVFCPVKCETYLSDSGSLQDHAGTLRGKVVDQFSDVLKTVRDAAPHAAVRYLPIDTFGCVELVSARWIHAQGSPGGEMLVPKYRVRPPGQIVRKGLDDLLTLLCRQLVDTARAQSERTTAAKQTAALNSRNHAELREGFFRDLWLNFNGERNRRRHTAATDERLFAMSQRTTQSLFDVLTALAGRESGPRLHHLS
MGSDKIHHHHHHMTDSDLWIQVSDVRKHYAIGKSGLSDALVSAQSSANTGPGEKIAVDGISLTIRNGERLGIVGRNGAGKSTLLHMVAGLSAPTAGKIDVHGRVTAIMTLGLGLREHASGRENIYIDGEVQGKSRVEIDAVIDEIIEFAELGEFIDMPVRTYSTGMKSRLAFAMISCLEPEILIIDEALSAGDAKFSAKATRKIQEICAKGRIVILVSHSMASIQSMCNRCLWIDQGKIVMDGLPDQVCKAYIDAVRSEDEAKLLERFRDEASTRFSLDGWDVDALYVLQGDTATQRVLLEAGEDALIRTKIQVPTGCEEAQLVMSVTRLDGLVVTQRRIALDKYTEAGVARVQFAMRPLVLGQGVYRLEIAAELGQALVASRSMIFEVFVRQPPTGGVPMLLYPSEATASLLS
MGSDKIHHHHHHMTDTAPAANIATLSELLKLSGSQYRLYDIGRLVSELPKEQFEKVELNQLPYPTPTQGCACIAIAFWQKQSSQPYLWLLKLPLDERGLLNQGARNHFIAIIVEALGADLTQETSKKQEELLSSNPYLFTPAQYKLASLNSKIKVDLKQQPSAYFSPFREYLSHGSDWGNWQGVGVQGITDFIARIKHDNHSELLLNALPHLPDEVLSPVCSALENEQYPVVLIDALVSALENALIIPDNSVKTMQLLRSLAANSDHTHVRKVVGQLLSNQEVSSELLITLSGRCWQALADEKMLMCYFEHLLSNNNLPLFSSIFKDLVTIPLIRPVAFQCIRSEDRSPALAQAIGQLLSQT
MGSDKIHHHHHHMTESSINLLFSIDNRFVEQFKVTLYSLYQNTSNKNLKIYMLQKELLADHKAIERFCYQLGLSYKPIIIGEEDFKDAPVSDRYPETIYYRLLAQDYLPKSLDKILYLDADILCLNDIAPLYQMDMKNYIYAAASHVSDKSITDIVNKLRLNNFEAEGYFNSGVLLMNLEQCRQKIKPQDIMNYISRKGNTLLLPDQDVLNALYGTKTHLIPDEIYNYDARYNIIYFTRSLGEWDLDWVIENTVFLHFCGKDKPWRKDYKGRYAALYKHYQHRVKILEK
MGSDKIHHHHHHMTGKLPKACVIGAGCSGFTTIKRLKDYGIPYDCFEMSDEVGGNWYYKNPNGLSACYESLHIDTSKWRLAFEDFPVPKDWPDFPHHAQLFQYFKDYVDHFGLRPTITFNTKVESAKRTADGLWAVTLSGGETQFYDVLFVCNGHHWDPRVPEYPGEFDGPAFHAHAYCDPFDPVDMRGKNVVVVGMGNSAMDIASELSQRPIAKNLWVSARRGVWVFPKYLNGKPADKTALPAWMPRKLGVALSRSVLKKTIGRMEDYGLPKPDHEPLEAHPSVSGEFLTRAGCGDIKFKPAIKALEGKRVRFTDDSVEDVDAIVFATGYKISFPFFDDPALLPDADHRLPLFKRMMKPEVPNLFYMGLAQPLPTLVNFAEQQAKLAAAYLAGQYALPPPAEMARITAKDEHRHTGHFYDSARHTIQVDFNVYCADLKKEIAKGEARARNAGGKLPVAARAEGQALAAE
MGSDKIHHHHHHMTKLMPKFEQHRTDFAYCQTITKRSSSAFYTAFSQLPLERAWSIYAVYAFCRTADDLVDVDHDIDGLMALRQSLTTFANGHVPDHPMWRALAVVFETYDMNLDVFFDMLTGQEQDATFKQPQTQQALEDYCYYVAGSVGLMILPMLATNPQSLVKPAVELGSAMQLTNILRDVGEDYQRGRIYLPSKLLAHYQLNPTDLHGPIPSANFIRLWEHEAQIAMNKYEAALTMMPQIDPVARPSLLAATLLYRELLLIAREQHYPILSQRVFLTDERKTQVLNQVSTKVHELALKEA
MGSDKIHHHHHHMTKNHKISVDQLQVGTHISLPVSWKDHPFLFSSFKIKDAAQIELIRHLGITEVFFNPEKSDTQPLALDAIQGDSIDLDDMVDASDTDEMMLLKNEMEVKKQDSIDKQQQMRRSINKTEKQFDRSVAMMRSVVSKLGSRPLNAVNDAKELIHNLTDLLLNSDNLVLHLMGDAKPEEGIYHHSLNVSVLCMLLGKGLGWSREEIELIGIGALFHDVGKLKIPSNILNKRTPLSVPEVNFIKQHPLMSINFLKLADNFPAAAEPLIANHHEFLDGSGSPQGLKADKLDNLSQLIAVVNEYDNLCNGNMQTKGKTPFAALSFLYKNYTKKLNKEYVGRMIKTLGIYPPGCIIELSSGQFGLVMSVNLKNILFPRIMVYDPQVPKDQAPIIDLEQEGIKIVRCLPPAALPENIFKYLNPREKVSYGLGSES
MGSDKIHHHHHHMTKPDMSKLASLSPFELKDELIKLASSDADRLMLNAGRGNPNFLATIPRHGFWQLGLFAMRESERSFSYMPEGVGGFPRREGIEERFDLFAREFAHVPGVSFLAGAVSYVRDQLGLNAGAFLYEMCEGILACNYPVPDRMLKLSEVIVGQYIRKEMIGNHPFIGEFDLFAVEGGTAAMTYLFNSIRENHLLKAGDTIALGMPIFTPYIEIPELNDYKLVELSVEADPGERWQYSNKELDKLRDPKVKAFFLVNPSNPPSVRMSDESLEYLASIIEERPDLIILTDDVYGTFADNFVSLFAMCPKNTILVYSFSKYFGATGWRLGVIATHRDNVFDEKIAALPDAARKELHERYTSITTEPDKLKFIDRLVADSRTVALNHTAGLSTPQQVQMVLFSLFSLMDTPDNYKIAMKRLIRNRKAALYREIGIAPEADDPNAVDYYTLLDIEALGGKALGPDFVKWVLASVEPNELLFRLAEDAGVVLLPGRGFGTRHPSGRVSLANLNESDYAKIGRSIRKLFEEYVEKYNEATGNKANKHVVKK
MGSDKIHHHHHHMTKRHTETKAYVKTALTTLLTEQSFETLTVSDLTKKAGINRGTFYLHYTDKFDMMNHFKNDTLDDLYRLLNQAEIYTDTRQVLNQTLSYLIEHREFITALATISYLKFPQLIKDFCYQFLTTITGFQDIVTNQYHIPYPYALEVYLASIESIISYWIANGYQETTEEVADIILKAVTLDN
MGSDKIHHHHHHMTKSKNNPGRGNTIRESNTMKVMEEIREKIRKAIKEGVSLREIEEIILQEAMMEEREAYLEVEDDHKNGTYFRYLGTGDGVLRLRVPRTRKGGFRPKILPEKYERTSPDYEDFLQQLVLSGMTPSQVKAVLAAKGIPYSEIVMNRVAERISNKLKEYKSRELPHDLLALYIDVKIVKVRISESIMERAIYIAIGVDLEGNKFVLDYEVRDREDLDGWKSFLSGLVSRGVSRVDVIVSDDFSGLDRVVSTLFPSSQHQLCITHMVRNLMRVLPDKEKEELMIRVRDLKSSRNVEEGRKAILSLSQLVQPFSPARAKRLLDAADKYCSFLNFPREIRHYLYTNNTSESFNLTLARFEEELGGYFPSLRSLEVYLYVSIHESNSRWKFRPMSVIRHYSYHLKQLHASRFQVSLDEDF
MGSDKIHHHHHHMTKVRVAGFGVSLDGFAAGTAQSLDHPLGVRGEEIFQWFFPTRTFRQMLGKEGGDTGLDDRFAQRAMEGFGAFILGRNMFGPVRGEWPDDQWKGWWGDNPPYHAPTFILTHHARPSIEMLGGTTFHFVTGGIEDALEKARKAAGGKDVKIGGGVKTVKQYVQAGYVDEIHLAFAPVALGQGESLFGGLDLRTLGYQTVEHVPTDRATHIVLAK
MGSDKIHHHHHHMTLPMPEKFWDIRIHKVDIHPGVTGLCVGYERGVWRKDQFVRHAMDWLPEFALKESELKGVDSANMVQMVRDAATAIYKSEKFHKRGEFGELFLHMAKRQVFNSIPAVSKIYYKTARNDTVKGFDSVHVVEAEDGLELWLGEVKFYKDLNSAVADVVKELQGHTQTDYLRDEFNLIMNKVDRDWEHYETMKRLMSKNTSLDEVFKRACIPVLLTYESEAICQCSVCDEEYKKLFINEIREAYKLFSSKKLPTDIRIHLFLFPLASKPELIKALDKKLKLWQQL
MGSDKIHHHHHHMTLSDPRFISLNQWLNCYFSDDVTPILISGDASFRRYFRVFAHDTSYIIADSPPALVPIAPFIALSSAYAAAGLTVPKVIASDADQGFMLLSDLGDTQLLSVLTDDNVADYYCRALALLPQVATVVESQDPVSGITQPLPLYDEAFVRRELGIFTEWLLARHLQLELGDEERTLVDESFDLLVKNALAQPKVGMHRDFHSRNLMLKDGGLCVIDFQDAVLGPVTYDAVSLLRDCYIRWPQAMVLELIQQHYQQVLESGHLPEGTSFRQYQSWFDLMGLQRHIKAAGIFARLYYRDNKPAYMADIPLTLAYIVDIARMYPELAPFAAWVESRVIPAFNLPLKQQDKQPGSSR
